Assay results as given in patent US20210340207A1 (Merck Sharp & Dohme, published 2021).

How the values were obtained:
Biotin-IL-2Rα-His = target: T1, Biotin-IL-2Rα-His (UniProt P01589 22-213, limits assumed, biotin-labeled (site not stated)); assay: SPR (Biacore T200)
T1 construct: also called biotin-labeled IL-2Rα; not shown: His tag
T1 sequence (looked up): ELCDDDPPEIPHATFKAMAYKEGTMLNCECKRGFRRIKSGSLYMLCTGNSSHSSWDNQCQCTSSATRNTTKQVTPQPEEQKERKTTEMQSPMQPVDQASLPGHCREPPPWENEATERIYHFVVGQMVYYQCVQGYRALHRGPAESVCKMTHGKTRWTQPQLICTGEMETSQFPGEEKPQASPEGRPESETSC

Biotin-IL-2Rβ-His = target: T2, Biotin-IL-2Rβ-His (UniProt P14784 27-239, limits assumed, biotin-labeled (site not stated)); assay: SPR (Biacore T200)
T2 construct: also called biotin-labeled IL-2Rβ; not shown: His tag
T2 sequence (looked up): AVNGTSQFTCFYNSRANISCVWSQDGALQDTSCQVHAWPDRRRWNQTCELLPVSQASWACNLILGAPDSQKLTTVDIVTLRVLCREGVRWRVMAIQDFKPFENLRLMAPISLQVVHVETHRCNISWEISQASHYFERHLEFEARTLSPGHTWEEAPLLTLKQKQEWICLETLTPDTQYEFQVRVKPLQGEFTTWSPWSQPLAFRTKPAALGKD

[1] = target: T3, mouse IL-2Rαβγc (on CTLL2-STAT5 reporter cells) (mouse, UniProt P01590 22-268; P16297 27-539; P34902 23-369); assay: cell-based or functional assay
T3 sequence (looked up) 1: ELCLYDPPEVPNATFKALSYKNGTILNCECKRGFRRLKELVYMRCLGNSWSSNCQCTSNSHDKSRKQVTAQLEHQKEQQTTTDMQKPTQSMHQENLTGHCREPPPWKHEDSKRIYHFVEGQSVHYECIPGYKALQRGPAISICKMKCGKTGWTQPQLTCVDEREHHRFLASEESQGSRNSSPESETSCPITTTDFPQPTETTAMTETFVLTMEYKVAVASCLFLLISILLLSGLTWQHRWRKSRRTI
T3 sequence (looked up) 2: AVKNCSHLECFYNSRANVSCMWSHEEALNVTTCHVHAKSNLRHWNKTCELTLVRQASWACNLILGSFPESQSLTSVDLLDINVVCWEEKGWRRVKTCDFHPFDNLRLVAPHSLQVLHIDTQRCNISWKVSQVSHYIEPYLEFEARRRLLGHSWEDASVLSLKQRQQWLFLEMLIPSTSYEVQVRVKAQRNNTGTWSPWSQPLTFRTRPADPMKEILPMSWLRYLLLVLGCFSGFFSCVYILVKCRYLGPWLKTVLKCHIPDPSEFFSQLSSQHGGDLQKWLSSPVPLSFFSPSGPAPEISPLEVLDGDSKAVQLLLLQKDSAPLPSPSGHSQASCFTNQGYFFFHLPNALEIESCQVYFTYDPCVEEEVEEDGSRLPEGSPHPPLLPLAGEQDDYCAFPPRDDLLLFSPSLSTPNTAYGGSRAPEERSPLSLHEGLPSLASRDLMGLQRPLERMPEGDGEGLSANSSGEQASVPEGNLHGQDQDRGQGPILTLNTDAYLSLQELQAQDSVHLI
T3 sequence (looked up) 3: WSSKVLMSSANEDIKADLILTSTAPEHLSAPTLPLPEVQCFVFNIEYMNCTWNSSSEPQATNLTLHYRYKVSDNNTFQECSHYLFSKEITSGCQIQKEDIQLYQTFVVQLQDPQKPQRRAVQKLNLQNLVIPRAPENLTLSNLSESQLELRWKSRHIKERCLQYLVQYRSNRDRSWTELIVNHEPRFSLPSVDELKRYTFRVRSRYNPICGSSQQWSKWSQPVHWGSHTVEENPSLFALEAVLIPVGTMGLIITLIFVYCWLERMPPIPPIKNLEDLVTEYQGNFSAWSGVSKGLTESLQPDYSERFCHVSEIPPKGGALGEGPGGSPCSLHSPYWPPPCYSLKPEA

[2] = target: T4, human IL-2Rβγc (on DERL-7 cells, U2OS IL2RB/IL2RG cells, CD25 knockout Kit225-STAT5 cells, primary CD8+ CTLs) (human, UniProt P14784 27-551; P31785 23-369); assay: cell-based or functional assay
T4 sequence (looked up) 1: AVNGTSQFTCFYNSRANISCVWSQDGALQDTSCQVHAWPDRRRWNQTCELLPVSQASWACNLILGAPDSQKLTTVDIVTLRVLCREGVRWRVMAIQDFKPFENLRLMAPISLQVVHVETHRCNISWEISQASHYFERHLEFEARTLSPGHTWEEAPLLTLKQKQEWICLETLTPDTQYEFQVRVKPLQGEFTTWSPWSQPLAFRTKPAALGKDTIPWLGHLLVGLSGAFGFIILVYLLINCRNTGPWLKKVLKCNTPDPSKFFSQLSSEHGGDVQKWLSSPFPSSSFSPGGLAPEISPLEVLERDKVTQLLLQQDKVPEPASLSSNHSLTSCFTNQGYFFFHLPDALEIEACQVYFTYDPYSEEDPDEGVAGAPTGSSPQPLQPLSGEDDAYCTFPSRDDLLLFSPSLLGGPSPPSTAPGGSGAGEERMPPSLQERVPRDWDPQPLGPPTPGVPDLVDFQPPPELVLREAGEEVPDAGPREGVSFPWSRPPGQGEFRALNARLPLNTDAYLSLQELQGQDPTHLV
T4 sequence (looked up) 2: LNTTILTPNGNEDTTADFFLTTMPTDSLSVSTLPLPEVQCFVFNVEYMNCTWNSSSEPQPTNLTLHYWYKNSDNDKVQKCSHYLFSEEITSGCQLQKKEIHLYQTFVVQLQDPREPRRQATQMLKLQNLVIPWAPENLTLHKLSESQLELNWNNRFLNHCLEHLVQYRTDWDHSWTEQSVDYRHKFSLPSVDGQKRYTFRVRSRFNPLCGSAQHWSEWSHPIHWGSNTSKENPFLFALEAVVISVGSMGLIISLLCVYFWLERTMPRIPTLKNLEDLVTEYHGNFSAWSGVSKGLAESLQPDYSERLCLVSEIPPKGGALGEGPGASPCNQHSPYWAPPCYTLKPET

Human IL-2Rβ (Table 7B) = target: T5, Human IL-2Rβ (Table 7B) (human, UniProt P14784 27-239, limits assumed); assay: SPR (Biacore T200)
T5 sequence (looked up): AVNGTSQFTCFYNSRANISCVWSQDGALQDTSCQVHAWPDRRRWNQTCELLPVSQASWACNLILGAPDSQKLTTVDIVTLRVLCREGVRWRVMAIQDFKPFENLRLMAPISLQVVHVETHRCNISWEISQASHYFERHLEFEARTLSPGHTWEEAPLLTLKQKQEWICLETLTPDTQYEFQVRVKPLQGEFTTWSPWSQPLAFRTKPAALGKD

[3] = target: T3, mouse IL-2Rαβγc (on CTLL2-STAT5 …); assay: cell-based or functional assay; remark: listed apart in the source
[4] = target: T4, human IL-2Rβγc (on DERL-7 cells, U2OS …); assay: cell-based or functional assay; remark: listed apart in the source
[5] = target: T6, human IL-2Rαβγc (on Kit225-STAT5 reporter cells, NK-92 cells, primary Treg cells) (human, UniProt P01589 22-272; P14784 27-551; P31785 23-369); assay: cell-based or functional assay
T6 sequence (looked up) 1: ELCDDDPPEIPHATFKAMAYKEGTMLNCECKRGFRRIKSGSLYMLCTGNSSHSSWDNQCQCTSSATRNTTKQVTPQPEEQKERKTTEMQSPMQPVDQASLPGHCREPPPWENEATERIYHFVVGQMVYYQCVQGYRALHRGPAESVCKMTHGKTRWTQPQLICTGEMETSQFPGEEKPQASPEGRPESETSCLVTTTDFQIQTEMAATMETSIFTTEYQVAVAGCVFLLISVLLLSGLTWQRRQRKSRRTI
T6 sequence (looked up) 2: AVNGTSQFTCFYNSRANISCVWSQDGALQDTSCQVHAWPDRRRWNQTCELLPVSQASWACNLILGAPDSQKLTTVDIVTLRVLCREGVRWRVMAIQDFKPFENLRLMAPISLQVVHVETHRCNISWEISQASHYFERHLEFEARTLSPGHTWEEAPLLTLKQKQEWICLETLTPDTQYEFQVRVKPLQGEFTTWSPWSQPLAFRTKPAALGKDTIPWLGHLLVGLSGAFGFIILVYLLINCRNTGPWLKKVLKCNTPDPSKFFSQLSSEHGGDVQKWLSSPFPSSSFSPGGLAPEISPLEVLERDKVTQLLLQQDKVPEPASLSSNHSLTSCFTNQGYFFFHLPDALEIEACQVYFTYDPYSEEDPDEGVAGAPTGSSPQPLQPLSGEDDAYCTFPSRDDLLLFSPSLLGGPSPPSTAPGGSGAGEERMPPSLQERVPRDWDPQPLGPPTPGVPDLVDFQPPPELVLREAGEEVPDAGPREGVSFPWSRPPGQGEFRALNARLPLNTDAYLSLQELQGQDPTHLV
T6 sequence (looked up) 3: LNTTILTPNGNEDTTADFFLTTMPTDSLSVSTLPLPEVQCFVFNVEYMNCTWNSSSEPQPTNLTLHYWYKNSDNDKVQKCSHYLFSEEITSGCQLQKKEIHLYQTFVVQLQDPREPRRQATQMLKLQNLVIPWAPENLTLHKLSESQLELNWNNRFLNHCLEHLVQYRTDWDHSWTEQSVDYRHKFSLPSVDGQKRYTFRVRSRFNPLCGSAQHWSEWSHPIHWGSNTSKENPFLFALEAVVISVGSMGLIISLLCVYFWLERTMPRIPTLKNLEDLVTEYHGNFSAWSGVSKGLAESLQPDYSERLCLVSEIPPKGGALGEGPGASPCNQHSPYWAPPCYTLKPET

[6] = target: T4, human IL-2Rβγc (on DERL-7 cells, U2OS …); assay: cell-based or functional assay; remark: listed apart in the source

B1: Ald-6HIS_E60T/P64A (ligand)
chain: PTSSSTKKTQLQLEHLLLDLQMILNGINNYKNPKLTRMLTFKFYMPKKATELKHLQCLETELKALEEVLNLAQSKNFHLRPRDLISNINVIVLELKGSETTFMCEYADETATIVEFLNRWITFSQSIISTLTGGSHHHHHH
- Kd (Biotin-IL-2Rα-His): 60 nM
- fold reduction over wt (Biotin-IL-2Rα-His): 6 fold
- Kd (Biotin-IL-2Rβ-His): 700 nM
- fold reduction over wt (Biotin-IL-2Rβ-His): 2 fold
- CTLL2-STAT5 EC50 [1]: 0.024 nM
- U2OS-IL2Rbg EC50 [2]: 0.499 nM

B2: Ald-6HIS_E61S/Y106A (ligand)
chain: PTSSSTKKTQLQLEHLLLDLQMILNGINNYKNPKLTRMLTFKFYMPKKATELKHLQCLEESLKPLEEVLNLAQSKNFHLRPRDLISNINVIVLELKGSETTFMCEAADETATIVEFLNRWITFSQSIISTLTGGSHHHHHH
- Kd (Biotin-IL-2Rβ-His): 2000 nM
- fold reduction over wt (Biotin-IL-2Rβ-His): 5 fold
- CTLL2-STAT5 EC50 [1]: > 7 nM
- U2OS-IL2Rbg EC50 [2]: 2.87 nM

B3: Ald-6HIS_T40D/F41K/E60T (ligand)
chain: PTSSSTKKTQLQLEHLLLDLQMILNGINNYKNPKLTRMLDKKFYMPKKATELKHLQCLETELKPLEEVLNLAQSKNFHLRPRDLISNINVIVLELKGSETTFMCEYADETATIVEFLNRWITFSQSIISTLTGGSHHHHHH
- Kd (Human IL-2Rβ (Table 7B)): 1000 nM
- koff (Human IL-2Rβ (Table 7B)): 0.36 s⁻¹
- kon (Human IL-2Rβ (Table 7B)): 350000 M⁻¹ s⁻¹
- STAT5-CTLL2 EC50 [3]: 98.5 nM
- STAT5-CTLL2 EC50 Fold Change [3]: 10900 fold
- DERL7 EC50 Fold Change [4]: 1.4 fold
- DERL7 cell assay EC50 [4]: 0.025 nM
- NK-92 EC50 Fold Change [5]: 9.09 fold
- NK-92 cell assay EC50 [5]: 0.063 nM
- U2OS B/BG EC50 Fold Change [6]: 3.15 fold
- U2OS B/BG bridging cell assay EC50 [6]: 0.503 nM

B4: Ald-6HIS_E60T/E61S/P64A (ligand)
chain: PTSSSTKKTQLQLEHLLLDLQMILNGINNYKNPKLTRMLTFKFYMPKKATELKHLQCLETSLKALEEVLNLAQSKNFHLRPRDLISNINVIVLELKGSETTFMCEYADETATIVEFLNRWITFSQSIISTLTGGSHHHHHH
- Kd (Biotin-IL-2Rα-His): 2000 nM
- fold reduction over wt (Biotin-IL-2Rα-His): 200 fold
- Kd (Biotin-IL-2Rβ-His): 1000 nM
- fold reduction over wt (Biotin-IL-2Rβ-His): 3 fold
- CTLL2-STAT5 EC50 [1]: 1.09 nM
- U2OS-IL2Rbg EC50 [2]: 1.96 nM

B5: Ald-6HIS_T40D/F41K (ligand)
chain: PTSSSTKKTQLQLEHLLLDLQMILNGINNYKNPKLTRMLDKKFYMPKKATELKHLQCLEEELKPLEEVLNLAQSKNFHLRPRDLISNINVIVLELKGSETTFMCEYADETATIVEFLNRWITFSQSIISTLTGGSHHHHHH
- Kd (Human IL-2Rβ (Table 7B)): 980 nM
- koff (Human IL-2Rβ (Table 7B)): 0.32 s⁻¹
- kon (Human IL-2Rβ (Table 7B)): 330000 M⁻¹ s⁻¹
- STAT5-CTLL2 EC50 [3]: 6.31 nM
- STAT5-CTLL2 EC50 Fold Change [3]: 699 fold
- DERL7 EC50 Fold Change [4]: 0.65 fold
- DERL7 cell assay EC50 [4]: 0.012 nM
- NK-92 EC50 Fold Change [5]: 2.81 fold
- NK-92 cell assay EC50 [5]: 0.02 nM
- U2OS B/BG EC50 Fold Change [6]: 1.84 fold
- U2OS B/BG bridging cell assay EC50 [6]: 0.294 nM
